The target in data set [1] is ultra-large von Willebrand factor (ULvWF) (human) (UniProt P04275). Nature of the data set: cell-based or functional assay.
Data set [2] deals with T1, human von Willebrand Factor (vWF) (human, UniProt P04275 764-2813).
T1 construct: Multimeric plasma protein; The species of the vWF on the BIACORE chip and ELISA plates is not restated there; also called vWF (Red Cross); human vWF
The data set can be described thus: ELISA: vWF coated on the plate, nanobody titrated from 10 µg/ml in 3-fold steps, detection with mouse anti-myc and anti-mouse-HRP, OD 405 nm.
Experimental: The plate was coated overnight at 4° C. The plate was then washed with PBS-Tween and blocked for two hours at room temperature with PBS-1% casein. After washing, the samples were applied starting at a concentration of 10 μg/ml and 3-fold dilutions were made in PBS. After a two hours incubation period, the plates were washed and mouse monoclonal anti-myc antibody at a 1000-fold dilution was applied for 1 hour at room temperature. The plates were washed and polyclonal anti-mouse-HRP (DAKO) was applied at a 1000-fold dilution for one hour at room temperature. The plates were washed and ABTS/H₂O₂ substrate was applied. The OD 405 nm was measured.

The target of data set [3] is T1, human von Willebrand Factor (vWF). The data set can be described thus: BIACORE (SPR): vWF amine-coupled to a CM5 chip, nanobody injected at 1.3 nM. In general terms: In SPR one partner is held on a chip, and binding of the other changes the refractive index at the surface.
Experimental: (§1) The CM5 surface of the chip was activated by the injection of EDC/NHS (1:1 mix of 0.4 M 1-ethyl-3-(3-dimethylaminopropyl)-carbodiimide and 0.1 M N-hydroxysuccinimide in water) for 7 minutes. […] The excess of reactive groups was deactivated with 1 M Ethanolamine-HCl (pH 8.5) for 7 minutes. The flowrate was kept constant during the immobilization procedure at 5 ul/min The eluent buffer was 0.01 M HEPES (pH 7.4) with 0.15 M NaCl, 3 mM EDTA and 0.005% Surfactant P20.
For data set [4] the target is unchanged. Nature of the data set: ELISA: vWF coated on the plate, nanobody titrated in 3-fold steps, detection with mouse anti-myc and anti-mouse-HRP, OD 405 nm.
For data set [5] the target is unchanged. Nature of the data set: BIACORE (SPR): vWF amine-coupled to a CM5 chip, nanobody injected at 1.3 nM. This is another data set of the same source.
Experimental: as §1
Data set [6] has the same target. Nature of the data set: ELISA on coated vWF: supernatant of a 200 µg/ml nanobody solution heated for 1 h at RT to 90 °C, dilution series, OD 405 nm.
In a further data set the target is T2, pig vWF (pig, UniProt Q28833 438-2482).
T2 construct: Native vWF in plasma
Nature of the data set: sandwich ELISA: nanobody (10 µg/ml) captured on coated anti-myc, plasma from a 5-fold dilution in 2-fold steps, detection with polyclonal anti-vWF-HRP, OD 405 nm. For orientation: In an ELISA, binding on a coated surface is turned into a signal by an enzyme label.

For data set [7], the target named is T1, human von Willebrand Factor (vWF). The data set can be described thus: ELISA: vWF coated on the plate, nanobody titrated in 3-fold steps, detection with mouse anti-myc and anti-mouse-HRP, OD 405 nm. This is another data set of the same source.

Where a chain is given by its changes, count along the chain named.

Experimental for pig vWF: A microtiterplate was coated with mouse anti-myc at 1/1000 overnight at 4° C. The plate was washed with PBS-Tween and blocked for two hours at room temperature with PBS-1% casein. After washing, the nanobodies were applied at a concentration of 10 μg/ml in PBS. After a one hour incubation period, the plates were washed and plasma (dog, pig, human, baboon and cynomologues monkey) was applied starting at a five-fold dilution and making further two-fold dilutions in PBS. The plates were incubated for 1 hour at room temperature. […] The plates were washed and ABTS/H₂O₂ substrate was applied. The OD 405 nm was measured.

Turning to “ADAMTS-13 (from UniProt Q76LX8 75-1427) (enzyme)”, in data set [1], the cleavage of ULvWF platelet strings on perfusion of pooled normal plasma containing ADAMTS-13 was > 95%; the cleavage of ULvWF platelet strings on perfusion of pooled normal plasma containing ADAMTS-13 and ALX-0081 (10 µg/ml) was found to be 95%.

B1: 14F8 (VHH)
VHH: AVQLVESGGGLVQAGESLRLSCTSSGRAFSYYNTGWFRQAPGKEREFVAAISWSGGLTYYADSVKGRFTISRDNAKDMVYLQMASLKPEDTAVYYCAANRRQKTVQMGERAYDYWGQGTQVTVSS
notes: Monovalent llama Nanobody; TALON-purified and detected with anti-myc, so tagged (myc/His)
As to B1, the “EC50 (read off the curve)” value in [2] was ~0.02 µg/mL.

B2: 12B6-GS30-12B6 (VHH)
chain: QVQLVESGGGLVQAGGALRLSCAASGRTFSYNPMGWFRQAPGKERDVVAAISRTGGSTYYARSVEGRFTISRDNAKRMVYLQMNALKPEDTAVYYCAAAGVRAEDGRVRTLPSEYNFWGQGTQVTVSSGGGGSGGGGSGGGGSGGGGSGGGGSGGGGSEVQLVESGGGLVQAGGALRLSCAASGRTFSYNPMGWFRQAPGKERDVVAAISRTGGSTYYARSVEGRFTISRDNAKRMVYLQMNALKPEDTAVYYCAAAGVRAEDGRVRTLPSEYNFWGQGTQVTVSS
notes: also called bivalent 12B6
For the molecule B2, the binding result in data set [3] is listed as “binds”.

B3: 12A5H1 (VHH)
VHH: EVQLVESGGGLVQPGGSLRLSCAASGRIFSIGAMGMYRQAPGKGRELVATITSGGSTNYADPVKGRFTISRDGPKNTVYLQMNSLRAEDTAVYYCYANLKQGSYGYRFNDYWGQGTQVTVSS
notes: Humanised 12A5, monovalent; TALON-purified, so His-tagged
As to B3, in data set [4], the “EC50 (read off the curve)” value is ~0.005 µg/mL.

B4: 12A5H2 (VHH)
VHH: B3 VHH with P74A
notes: as for B3
B4: in data set [4], the concentration for a half-maximal effect (EC50 (read off the curve)) is ~0.03 µg/mL.

B5: 12B6-3a-12B6 (VHH)
chain: QVQLVESGGGLVQAGGALRLSCAASGRTFSYNPMGWFRQAPGKERDVVAAISRTGGSTYYARSVEGRFTISRDNAKRMVYLQMNALKPEDTAVYYCAAAGVRAEDGRVRTLPSEYNFWGQGTQVTVSSAAAEVQLVESGGGLVQAGGALRLSCAASGRTFSYNPMGWFRQAPGKERDVVAAISRTGGSTYYARSVEGRFTISRDNAKRMVYLQMNALKPEDTAVYYCAAAGVRAEDGRVRTLPSEYNFWGQGTQVTVSS
notes: also called bivalent 12B6
In the case of B5, the binding result in [3] is on record as “binds”.

B6: 12A2-3a-12A2 (VHH)
chain: QVKLEESGGGLVQAGGALRLSCAASGRTFSYNPMGWFRQAPGKERDLVAAISRTGGSTYYPDSVEGRFTISRDNAKRMVYLQMNNLKPEDTAVYYCAAAGVRAEDGRVRTLPSEYTFWGQGTQVTVSSAAAEVQLVESGGGLVQAGGALRLSCAASGRTFSYNPMGWFRQAPGKERDLVAAISRTGGSTYYPDSVEGRFTISRDNAKRMVYLQMNNLKPEDTAVYYCAAAGVRAEDGRVRTLPSEYTFWGQGTQVTVSS
notes: also called bivalent 12A2
On to B6, for which the binding result in data set [5] is “binds”.

B7: 12A2H1 (VHH)
VHH: EVQLVESGGGLVQPGGSLRLSCAASGRTFSYNPMGWFRQAPGKGRELVAAISRTGGSTYYPDSVEGRFTISRDNAKRMVYLQMNSLRAEDTAVYYCAAAGVRAEDGRVRTLPSEYTFWGQGTQVTVSS
notes: Humanised 12A2, monovalent
B7: the binding result in data set [6] was “binds”.

B8: 12A2 (VHH)
VHH: B7 VHH with E1Q, Q3K, V5E, P14A, S17A, G44E, E46D, S85N, R87K, A88P
notes: 12B6 homologue, monovalent Nanobody
With B8, the binding result with pig vWF was “binds”.

B9: 12B6H1 (VHH)
VHH: B7 VHH with E46D, L47V, P61A, D62R, T116N
notes: Humanised 12B6, monovalent
Regarding B9, the half-maximal effective concentration (EC50 (read off the curve)) in data set [7] was ~0.02 µg/mL.

B10: 12B6 (VHH)
VHH: QVQLVESGGGLVQAGGALRLSCAASGRTFSYNPMGWFRQAPGKERDVVAAISRTGGSTYYARSVEGRFTISRDNAKRMVYLQMNALKPEDTAVYYCAAAGVRAEDGRVRTLPSEYNFWGQGTQVTVSS
notes: as for B1
Consider B10, for which the “EC50 (read off the curve)” value in [2] is ~0.02 µg/mL.

B11: 12B6H2 (VHH)
VHH: B7 VHH with L47V, P61A, D62R, T116N
notes: Humanised 12B6, monovalent
B11: the “EC50 (read off the curve)” value in data set [7] was ~0.01 µg/mL.

B12: 12B1 (VHH)
VHH: QVQLVESGGGLVQAGGSLRLSCAASGRTFSNYGMGWFRQAPGKEREFVTSISWSGTYTAYSDNVKGRFTISRDNAKNTVYLQMDSLKPEDTAVYYCAAQSRYRSNYYDHDDKYAYWGQGTQVTVSS
notes: as for B1
Regarding B12, the “EC50 (read off the curve)” value in [2] was ~0.02 µg/mL.

B13: 12E3 (VHH)
VHH: B12 VHH with Q1E, S30N, T56S, S61A, E89G, R103S
notes: as for B1
For B13, the binding result in data set [2] was “binds”.

B14: ADAMTS-13 (protein)
chain: AAGGILHLELLVAVGPDVFQAHQEDTERYVLTNLNIGAELLRDPSLGAQFRVHLVKMVILTEPEGAPNITANLTSSLLSVCGWSQTINPEDDTDPGHADLVLYITRFDLELPDGNRQVRGVTQLGGACSPTWSCLITEDTGFDLGVTIAHEIGHSFGLEHDGAPGSGCGPSGHVMASDGAAPRAGLAWSPCSRRQLLSLLSAGRARCVWDPPRPQPGSAGHPPDAQPGLYYSANEQCRVAFGPKAVACTFAREHLDMCQALSCHTDPLDQSSCSRLLVPLLDGTECGVEKWCSKGRCRSLVELTPIAAVHGRWSSWGPRSPCSRSCGGGVVTRRRQCNNPRPAFGGRACVGADLQAEMCNTQACEKTQLEFMSQQCARTDGQPLRSSPGGASFYHWGAAVPHSQGDALCRHMCRAIGESFIMKRGDSFLDGTRCMPSGPREDGTLSLCVSGSCRTFGCDGRMDSQQVWDRCQVCGGDNSTCSPRKGSFTAGRAREYVTFLTVTPNLTSVYIANHRPLFTHLAVRIGGRYVVAGKMSISPNTTYPSLLEDGRVEYRVALTEDRLPRLEEIRIWGPLQEDADIQVYRRYGEEYGNLTRPDITFTYFQPKPRQAWVWAAVRGPCSVSCGAGLRWVNYSCLDQARKELVETVQCQGSQQPPAWPEACVLEPCPPYWAVGDFGPCSASCGGGLRERPVRCVEAQGSLLKTLPPARCRAGAQQPAVALETCNPQPCPARWEVSEPSSCTSAGGAGLALENETCVPGADGLEAPVTEGPGSVDEKLPAPEPCVGMSCPPGWGHLDATSAGEKAPSPWGSIRTGAQAAHVWTPAAGSCSVSCGRGLMELRFLCMDSALRVPVQEELCGLASKPGSRREVCQAVPCPARWQYKLAACSVSCGRGVVRRILYCARAHGEDDGEEILLDTQCQGLPRPEPQEACSLEPCPPRWKVMSLGPCSASCGLGTARRSVACVQLDQGQDVEVDEAACAALVRPEASVPCLIADCTYRWHVGTWMECSVSCGDGIQRRRDTCLGPQAQAPVPADFCQHLPKPVTVRGCWAGPCVGQGTPSLVPHEEAAAPGRTTATPAGASLEWSQARGLLFSPAPQPRRLLPGPQENSVQSSACGRQHLEPTGTIDMRGPGQADCAVAIGRPLGEVVTLRVLESSLNCSAGDMLLLWGRLTWRKMCRKLLDMTFSSKTNTLVVRQRCGRPGGGVLLRYGSQLAPETFYRECDMQLFGPWGEIVSPSLSPATSNAGGCRLFINVAPHARIAIHALATNMGAGTEGANASYILIRDTHSLRTTAFHGQQVLYWESESSQAEMEFSEGFLKAQASLRGQYWTLQSWVPEMQDPQSWKGKEGT
With B14, the “proteolytic cleavage of the A1-A2-A3 fragment by normal pool plasma (Western blot)” value in the data set with A1A2A3 construct, P04275 is reported as “resulting in proteolytic cleavage of the fragment”.

B15: 12B6-GS9-12B6 (VHH)
chain: QVQLVESGGGLVQAGGALRLSCAASGRTFSYNPMGWFRQAPGKERDVVAAISRTGGSTYYARSVEGRFTISRDNAKRMVYLQMNALKPEDTAVYYCAAAGVRAEDGRVRTLPSEYNFWGQGTQVTVSSGGGGSGGGSEVQLVESGGGLVQAGGALRLSCAASGRTFSYNPMGWFRQAPGKERDVVAAISRTGGSTYYARSVEGRFTISRDNAKRMVYLQMNALKPEDTAVYYCAAAGVRAEDGRVRTLPSEYNFWGQGTQVTVSS
notes: also called bivalent 12B6
Consider B15, for which, in data set [3], the binding result was “binds”.

B16: 12A2-GS9-12A2 (VHH)
chain: QVKLEESGGGLVQAGGALRLSCAASGRTFSYNPMGWFRQAPGKERDLVAAISRTGGSTYYPDSVEGRFTISRDNAKRMVYLQMNNLKPEDTAVYYCAAAGVRAEDGRVRTLPSEYTFWGQGTQVTVSSGGGGSGGGSEVQLVESGGGLVQAGGALRLSCAASGRTFSYNPMGWFRQAPGKERDLVAAISRTGGSTYYPDSVEGRFTISRDNAKRMVYLQMNNLKPEDTAVYYCAAAGVRAEDGRVRTLPSEYTFWGQGTQVTVSS
notes: also called bivalent 12A2
Turning to B16, in data set [5], the binding result is listed as “binds”.

B17: 12C9 (VHH)
VHH: AVQLVESGGGLVQPGGSLKLSCATSGSIFSSSAMAWYRQASGKQRELVATITSGGRTSYADSVKGRFTISRDNAKNTVYLQMNSLKPEDTAVYDCNFVVDGKRAPWGQGTQVTVSS
notes: as for B1
For B17, the binding result in [2] is given as “binds”.

B18: 12D11 (VHH)
VHH: AVQLVDSGGGLVQAGGSLRLSCTASERTTFSSYTLGWFRQAPGKEREFVGGISWSGVSTDYAEFAKGRFTISRDHAANTVYLEMNSLKPEDTAVYYCAALGRYRSNWRNIGQYDYWGQGTQVTVSS
notes: as for B1
As for B18, the binding result in [2] was “binds”.

The EC50 (read off the curve) is the concentration that produces a half-maximal response. A high value points to a need for much substance.

The record behind these values is patent US20130136736A1 (Ablynx, published 2013).
